Experimental data reported in patent US20060253917A1 (published 2006).
Ends that are not written are not given here.

How the values were obtained:
[1] = target: T1, OsRAP1B aa 30-180 (Oryza sativa, UniProt Q10CQ1 30-180); test: Y2H; output trait library
T1 construct: bait, Gal4 DBD fusion; also called PN20232
T1 sequence: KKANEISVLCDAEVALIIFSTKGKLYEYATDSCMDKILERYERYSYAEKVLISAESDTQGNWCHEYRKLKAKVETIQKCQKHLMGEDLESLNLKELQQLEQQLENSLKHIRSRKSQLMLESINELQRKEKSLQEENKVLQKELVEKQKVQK
How it was run: (§1)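 Using an automated, high-throughput yeast two-hybrid assay provided by Myriad Genetics Inc. (Salt Lake City, Utah), protein-protein interactions were detected. Against either the input trait or the output trait rice prey library, a bait clone encoding a defined amino-acid fragment of a rice protein was screened. The encoding sequences of the prey clones that were retrieved were then compared against databases by BLAST to identify the interacting proteins.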

[2] = target: T2, Os018989-4003 aa 90-220 (Oryza sativa); test: Y2H; output trait library
T2 construct: bait, Gal4 DBD fusion; also called PN21044
T2 chain: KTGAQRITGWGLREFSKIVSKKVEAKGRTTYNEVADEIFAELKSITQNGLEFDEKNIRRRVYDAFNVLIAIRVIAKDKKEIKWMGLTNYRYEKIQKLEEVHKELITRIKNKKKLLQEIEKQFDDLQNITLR
How it was run: as §1

[3] = target: T3, OsMADS5 aa 50-160 (Oryza sativa, UniProt A2Y9P0 50-160); test: Y2H; output trait library
T3 construct: bait, Gal4 DBD fusion; also called PN20770
T3 sequence: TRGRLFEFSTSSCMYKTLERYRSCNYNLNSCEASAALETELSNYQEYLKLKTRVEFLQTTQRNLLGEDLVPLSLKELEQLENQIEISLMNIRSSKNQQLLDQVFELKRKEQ
How it was run: as §1

[4] = target: T4, Os005750-3115 aa 50-150 (Oryza sativa, UniProt Q6IVC3 50-150); test: Y2H; output trait library
T4 construct: bait, Gal4 DBD fusion; also called PN20466; O. sativa bZIP Transcription Factor
T4 sequence: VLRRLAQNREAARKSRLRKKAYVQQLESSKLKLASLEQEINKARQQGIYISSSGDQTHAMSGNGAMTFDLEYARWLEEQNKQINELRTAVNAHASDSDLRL
How it was run: as §1

[5] = target: T5, OsPP2A-2 aa 150-308 (Oryza sativa, UniProt A2XN40 150-307); test: Y2H; output trait library
T5 construct: bait, Gal4 DBD fusion; also called PN20254
T5 sequence: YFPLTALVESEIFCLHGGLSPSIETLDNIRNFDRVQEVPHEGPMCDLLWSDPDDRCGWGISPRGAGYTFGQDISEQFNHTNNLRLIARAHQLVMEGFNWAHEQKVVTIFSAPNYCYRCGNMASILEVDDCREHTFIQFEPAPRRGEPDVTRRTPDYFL

[6] = target: T6, OsCAA90866 aa 100-250 (Oryza sativa); test: Y2H; input trait library
T6 construct: bait, Gal4 DBD fusion; also called PN20311; O. sativa Chilling-Inducible Protein CAA90866
T6 chain: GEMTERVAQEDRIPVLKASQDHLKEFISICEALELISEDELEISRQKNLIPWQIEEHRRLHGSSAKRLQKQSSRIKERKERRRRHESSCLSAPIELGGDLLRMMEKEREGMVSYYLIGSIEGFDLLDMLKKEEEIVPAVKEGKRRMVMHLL
How it was run: as §1

[7] = target: T6, OsCAA90866 aa 100-250; test: Y2H; output trait library

B1: OsMADS8 aa 109-248 (other)
chain: RTQRNLLGEDLGTLGIKELEQLEKQLDSSLRHIRSTRTQHMLDQLTDLQRREQMLCEANKCLRRKLEESNQLHGQVWEHGATLLGYERQSPHAVQQVPPHGGNGFFHSLEAAAEPTLQIGFTPEQMNNSCVTAFMPTWLP
notes: prey, AD fusion; also called PN20778
binding result [1]: binds

B2: OsMADS8 aa 74-183 (other)
chain: SYGGPDTAIQNKENELVQSSRNEYLKLKARVENLQRTQRNLLGEDLGTLGIKELEQLEKQLDSSLRHIRSTRTQHMLDQLTDLQRREQMLCEANKCLRRKLEESNQLHGQ
notes: as for B1
binding result [1]: binds

B3: OsAAK72891 aa 339-651 (other)
chain: ELDLQEKTEELFKFKREKGLLTLKNDVEFEPLRKKIPQIISRMDQIISKNIKMPSLCMTNDGLDERCISAKRIDSLYYENQHLRGLLADNMKDVKELSSQLSEASKEMSIQLSSEDDLLRQIAKIKEEYEDLQIEAGVRDGVYQTITRKLLDDSMNSMHDAATNFSTELSSLEAMISEKEKALCLSNEENRMLKEKIAELEQCLIQDKQEDPEVIKQESTEIILRDIEVAPHISPRRSHETPKQDMQYDELVKLNSSLEIASAALKEVENKNIDYNGIFTKNEQEKQLECILISIMKLSKEFVEIEQKLSVER
notes: prey, AD fusion; also called PN26317
binding result [2]: binds

B4: OsMADS13 aa 69-230 (other)
chain: RYKKAHACGSTSGAPLIEVNAQQYYQQESAKLRHQIQMLQNTNKHLVGDNVSNLSLKELKQLESRLEKGIAKIRARKNELLASEINYMAKREIELQNDNMDLRTKIAEEEQQLQQVTVARSAAMELQAAAAAQQQQQNPFAVAAAQLDMKCFFPLNLFEAAA
notes: prey, AD fusion; also called PN20668
binding result [3]: binds

B5: Os000564-1102 aa 72-172 (other)
chain: SIEQKEESRGNEDRVTLIKDYRGKIETELTKICDGILKLLESHLVPSSTAPESKVFYLKMKGDYYRYLAEFKTGAERKDAAENTMVAYKAAQDIALAELPP
notes: prey, AD fusion; also called PN20072; Hypothetical protein 000564-1102
binding result [3]: binds

B6: OsBAB56078 aa 51-155 (other)
chain: PGRFVRKCEKTEQLLRDCVGSDIEALEKGLFGSIGSFLDDAERMTNDFLKSFGVPSINERESSSFDGQPTGRHIGGQPAGRHIEEGTAKDTKQNDYAEFSSKITD
notes: prey, AD fusion; also called PN28517; O. sativa Hypothetical protein BAB56078
binding result [3]: binds

B7: OsPN22824 aa 393-494 (other)
chain: ASLVEQDLKERAAREARMGEQLRASEAARETLEAEMRRLRVQTEQWRKAAEAAPPVIGGDAHFVGHNGNGWGSPATMPDDCDDEGFGGKRKGAGIRMLGDLW
notes: prey, AD fusion; also called Novel Protein PN22824, Myosin heavy chain
binding result [2]: binds

B8: OsAAG13633 aa 528-789 (other)
chain: LREQLRMQYECSAHLSIISDLEANVESLENELQEQSKRLEADIQEVMRAKVEQEQRAIKAEESLRKARWNNATTAERLQEEFKMLSSQVSSAFSANEQLLMQARKEAAELQLQKGQLEELLQKAQEDLGSIQEQHRVKVQQLLTLVDFKSKETDRLVMELKSKSDEFQNQKRCNEAKLSVLSEEIDQLKAKIENLSNERDNLFEENEQKDKELAANCQKDMFLQDRDAEIALLNKELASIKDQVQTYLEEINTLKSSKNEKE
notes: prey, AD fusion; also called PN25701
binding result [4]: binds

B9: OsAAG13633 aa 538-738 (other)
chain: CSAHLSIISDLEANVESLENELQEQSKRLEADIQEVMRAKVEQEQRAIKAEESLRKARWNNATTAERLQEEFKMLSSQVSSAFSANEQLLMQARKEAAELQLQKGQLEELLQKAQEDLGSIQEQHRVKVQQLLTLVDFKSKETDRLVMELKSKSDEFQNQKRCNEAKLSVLSEEIDQLKAKIENLSNERDNLFEENEQKDK
notes: as for B8
binding result [4]: binds

B10: OsAAG13633 aa 612-738 (other)
chain: LSSQVSSAFSANEQLLMQARKEAAELQLQKGQLEELLQKAQEDLGSIQEQHRVKVQQLLTLVDFKSKETDRLVMELKSKSDEFQNQKRCNEAKLSVLSEEIDQLKAKIENLSNERDNLFEENEQKDK
notes: as for B8
binding result [4]: binds

B11: OsCAA33838 aa 5-155 (other)
chain: VFSRFSIYFCVLLLCHGSMAQLFNPSTNPWHSPRQGSFRECRFDRLQAFEPLRKVRSEAGVTEYFDEKNELFQCTGTFVIRRVIQPQGLLVPRYTNIPGVVYIIQGRGSMGLTFPGCPATYQQQFQQFSSQGQSQSQKFRDEHQKIHQFRQ
notes: prey, AD fusion; also called PN24775; O. sativa Glutelin CAA33838
binding result [5]: binds

B12: OsPN24162 aa 28-164 (other)
chain: QKLTVSTVSSSGVGLTSTAVKKGGLYTLDVSSVYKYKSTLVDVKVDTESNISTTLTVFDVLPSTKLVTSVKLPDYNSGKVEMQYFHENASFATAVGMKPSPVVEFSGTAGAQGLAFGAEAGFDTATGKFTKYSAAIG
notes: prey, AD fusion; also called Novel Protein PN24162, Porin-like, Voltage-Dependent Anion Channel Protein
binding result [5]: binds

B13: Os011994-D16 aa 99-368 (other)
chain: FGPSFGGGGSSRGRRQRRGEDVIHPLKVSLEDLYNGTSKKLSLSRNVLCAKCKGKGSKSGASMRCPGCQGSGMKITIRQLGPSMIQQMQQPCNECKGTGESINEKDRCPGCKGEKVIQEKKVLEVHVEKGMQHNQKITFPGEADEAPDTVTGDIVFVLQQKDHSKFKRKGDDLFYEHTLSLTEALCGFQFVLTHLDNRQLLIKSNPGEVVKPDQFKAINDEGMPMYQRPFMKGKLYIHFTVEFPDSLAPEQCKALEAVLPPKPASQLTEM
notes: prey, AD fusion; also called PN20618; Hypothetical Protein 011994-D16, Similar to Z. mays DnaJ protein
binding result [5]: binds

B14: OsAAG46136 aa 92-222 (other)
chain: FGVNSGTTRFALENQAINEATFRCPDELGWKPQRAPIVSSDGSISNLRKTTVPVNEVNKSLQQMGFDVAPSDDAGRFVCNYVYYQSLRFAEQRGIKSLFVHFPLFTTISEEVQMNFVATLLEVLASQNYAQ
notes: prey, AD fusion; also called PN23186; O. sativa Putative Pyrrolidone Carboxyl Peptidase
binding result [6]: binds

B15: OsORF020300-2233.2 aa 1-206 (other)
chain: MVEVEEVSNKMQAQMRLHPAAAAEEEDADLPLPALFDKASHLHSLASSSSLDQEGIRKGVDLLRRCDEMVSKLGLFSSNETKDDVSTANLKYLLVPYYLGEMTERVAQEDRIPVLKASQDHLKEFISICEALELISEDELELSRQKQPDTMANRRAQKAARFKRQKAAETKLLEIKERKERRRRSLRAAALSAPIEAGEEDAFEDD
notes: prey, AD fusion; also called PN21639
binding result [7]: binds

B16: OsORF020300-2233.2 aa 1-190 (other)
chain: MVEVEEVSNKMQAQMRLHPAAAAEEEDADLPLPALFDKASHLHSLASSSSLDQEGIRKGVDLLRRCDEMVSKLGLFSSNETKDDVSTANLKYLLVPYYLGEMTERVAQEDRIPVLKASQDHLKEFISICEALELISEDELELSRQKQPDTMANRRAQKAARFKRQKAAETKLLEIKERKERRRRSLRAAA
notes: as for B15
binding result [7]: binds

B17: OsPN23045 aa 240-287 (other)
chain: ILSKLVQAKELLKEYVEREKKKREERSETPKSNEAVTKFDGSLNSMRH
modifications: not fully specified
notes: prey, AD fusion; also called Novel Protein PN23045
binding result [6]: binds

B18: OsPN23225 aa 639-792 (other)
chain: FGIRILDEAQQCIEELQCPEYYSEIVKEAINLALDKGPNFIDPLVRLLEHLHTKKIFKTEDLKTGCLLYAALLEDIGIDLPLAPALFGEVVARLSLSCSLSFEVVEEILKAVEDTYFRKGIFDAVMKTMGGNSSGQAILSSHAVVIDACNKLLK
notes: prey, AD fusion; also called Novel Protein PN23225, Similar to Tritticum aestivum Initiation Factor (iso)4f p82 Subunit
binding result [6]: binds

B19: OsPN29883 aa 58-175 (other)
chain: YGQLKAAQPFFLLAGPNVIESEEHVLKMAKHIKGITTKLGLPLVFKSSFDKANRTSSKSFRGPGLEEGLKILEKVKATYDIPVVTDVHESHQCEAAGRVADIIQIPAFFCRQTDLLVA
notes: prey, AD fusion; also called Novel Protein PN29883, Fragment
binding result [7]: binds

B20: OsE2F1 aa 191-436 (other)
chain: LQAEVENLSLKEQALDERISDMREKLRGLTEDENNQRWLYVTEDDIKGLPCFQNETLIAIKAPHGTTLEVPDPDEAGDYLQRRYRIVLRSTMGPIDVYLVSQFDEKFEDLGGGATPSGHANVPKHQPTEVFNTTNAGVGQCSNSVAVDNNIQHSQTIPQDPSASHDFGGMTRIIPSDIDTDADYWLISEGDVSITDMWKTAPDVQWDESLDTDVFLSEDVRTPSSHNQQPSAVGGPQMQVSDMHKP
notes: prey, AD fusion; also called PN19758
binding result [2]: binds

B21: OsMADS5 aa 121-225 (other)
chain: LSLKELEQLENQIEISLMNIRSSKNQQLLDQVFELKRKEQQLQDANKDLKRKIQETSGENMLHISCQDVGPSGHASEANQEFLHHAICDPSLHIGYQAYMDHLNQ
notes: prey, AD fusion; also called PN20770
binding result [1]: binds
